Laboratory results reported in the nanobody polyreactivity screen of Harvey et al. (2022).

Experiment: yeast display, Sf9 membrane polyspecificity reagent, FACS + sequencing; frameworks hold sequencing errors
How it was run: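 A synthetic nanobody library was expressed on Saccharomyces cerevisiae BJ5465 by galactose induction for 36–48 hours. The library was stained for 1 hour at 4 °C with 10% biotinylated, detergent-solubilized Sf9 membrane reagent and enriched with streptavidin microbeads before FACS. Low and high (top ~1%) gates were set on anti-HA fluorescence for expression and streptavidin fluorescence for reagent binding, and each polyreactivity label reflects the gate of origin.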

Sequence	polyreactivity (PSR sort gate)
QVQLVESGGGLVQAGGSLRLSCAASGRIFPGYAMGWYRQAPGKERELVASISSGGRTYYADSVKGRFTISRDNAKNTVYLQMNSLIPEDTAVYYCNSRHSSYSFRYDYWGQGTQVTVSS	low polyreactivity
QVQLVESGGGLVQAGGSLRLSCAASGRTLGYYAKGWYRQAPGKERELVAAISRSGGSTYYADSVKGRFTISRDNAKNTVYLQMNSLKPEDTAVYYCAATYGPSRYRYDYWGQGTQVTVSS	high polyreactivity
QVQLVESGGGLVQAGGSLRLSCAASGSTFGRYAMGWYRQAPGKERELVAAITRSGGRTYYADSLKGRFTISRDNAKNTVYLQMNSLKPEDTAVYYCAAVGNLYYTSHWQYDYWGQGTQVTVSS	high polyreactivity
KVQLVESGGGLVQAGGSLRLSCAASGRIFRYYAMGWSRQAPGKERELVAAISRGGGSTYYADSVKGRFTISRDNAKNTVYLQMNSLKPEDTAVYYCANSVGRGPIGYDYWGQGTQVTVSS	high polyreactivity
QVQLVESGGGLVQSGGSLRLSCAASGSIFDYYAMGWYRQAPGKERELVASINSSGTGTYYADSVKGRFTFSRDNAKNTVSLQVNSMKPEDTAVYYCATRQAVGYSSGRGYGYWGQGTQETVSS	low polyreactivity
QVQLVESGGGLVQAGGSLRLSCAASGSIFGFYAMGWYRQAPGKERELVAAITYSGGSTYADSVKGRFTISRDNAKNTVYLQMNSLKPEDTAVYYCAKDAELDITDAFYYWGQGTQVTVSS	low polyreactivity
QVQLVKSGGGLVQAGGSLRLSCAASGFIIPEYTMGWYRQAPVKERELVAAISGSGGSTYYADSVKGRFTISRDNAKNTVYLQMNSLKPEDTAVYYCAASYAVSRYLQTYAHAHGYWGQGTQVTVSS	low polyreactivity
QVQLVESGGGLVQAGGSLRLSCAASGITFGFNAMGWNRQAPGKERELVAAITWSVGRTYYADSVKGRFTISRDNAKNTVYLQMNSLKPEDTAVYYCAKDFEAGDDYFAYDYWGQGTQVTVSS	low polyreactivity
QVQLVESGGGLVQAGGSLRLSCAASGFTFSYYAMGWYRQAPGKERELVASISRSGNTYYADSVKGRFTISRDNAKNSVYLQMNSLKPEDTAVYYCAAAYKSYYLDGTYYYWGQGTQVTVSS	high polyreactivity
QVQLVESVGGLVQAGGSLRLTCAASGSIFYVYAMGWYRQAPGKERELVANIRDGGITYADSVKGRFTISRDNAKNTVYLQMNSLKPEDTAVYYCARDDTSPGYGDQSSNAAYYYRGQGTQVTVSS	low polyreactivity
QVQLVESGGGLVQAGGSLRLSCAASGYTFEDNAMGWYRQAPRKESELVAAIDWSGDSTYYADSVKGRFTISRDNAKNTVYLQMNSLKPEDTAVYYCAADYTTWTDMDYWGQGTQVTVSS	low polyreactivity
QVQLVESGGGLVQAGGSLRLSCAASGFTLGRYAMGWYRQAPGKERELVAAITGRGGTTYYADSVKGRFRISRDNAKNTVYLQMNSLKPEDTAVYYCAADTKLSYQWFDYWGQGTQVTVSS	high polyreactivity
QVQLVESGGGLGQAGGSLRLSCAASGRTLGAYAMGWYRQAPGKERELVAAISGSGGSTYYADSVKGRFTISRDNAKNTVYLQMNSLKPEDTAVYYCAAVLSRYGQSISMYYWGQGTQVTVSS	high polyreactivity
QVQLVESGGGLVQAGGSLRLSCAASGRTFRVYAMGWYRPAPGKERELVATITSSGGSTYYADSVKGRFTISRDNAKNTVYLQMNSLKPEDTAVYYCNVSVYYNYDSSYYYWGQGTQVTVSS	low polyreactivity
QVQLVESGGGLVQAGGSLRLSCAASGSIFRSYAMGWYRQSPGKERELVASISRRGGSTYYADSVKGRFTISRDNAKNTVYLQMNSLKPEDTAVYYCAAVRYNSRVSTTPSDMYYWGQGTQVTVSS	low polyreactivity
QVQLVESGGGLVQAGGSLRLSCAASGSTFVYNAMGWYRQAPGKERELVAGISSSGGRTYYADSVKGRFTISRDNAKNTVYLQMNSLKPEDTAVYYCATGYRQGEYDYWGQGTQVTVSS	low polyreactivity
QVQLVESGGGLVQAGGSLRLSCAASGFTFGWYAMGWYRQAPGKERELVATISWSGSSTYYADSVKGRFTISRDNAKNTVYLQMNSLKPEDTAVYYCNAVYGRFVVLRYDYWGQGTQVTVSS	high polyreactivity
QVQLVESGGGLVQAGVSLRLSCAASGNIFRYYVMGWYRQAPGKEREFVAAITSSGGSTYYADSVKGRFTISRDNAKKSFYLQMNSLKPEDSAVYYCAKDYWDPGWAEYDYWGQGTQVTVSS	low polyreactivity
QVQLVESGGGLVQAGGSLRLSCAASGLIFDKYAMGWYRQAPGKERELVAAITRSSGTTYYADSVKGRFTISRDNAKNTVYLQLNSLKPEDTAVYYCAARFIWGYWGVGYYYWGLGTQVTVSS	low polyreactivity
QVQLVESGGGLVQAGGSLRLSCAASGIIFKQNVMGWYRQAPGKERELVAAITSRDGSTYYADSVKGRFTISRDNAKNTVYLQMNSLKPEDTAVYYCAAKWRSPRYYLYGYWGQGTQVTVSS	high polyreactivity
QVQLVESGGGLVQAGGSLRLSCAASGITFRQYAMGWYRQAPGKEREFVAAISWIGGSTYYADSVKGRFTISRDTAKNTVYLQMNSLKPEDTAVYYCAAETFTDYDYWGQGTQVTVSS	high polyreactivity
QVQLVESGGGLVQAGGSLRLSCAASGSIFLAYAMGWYRQAPGKERELVAAITSGGGRTYYADSVKGRFTISRDNAKNTVYLQMNSLKPEDTAVYYCAASYRAGQMWYDYWGQGTQVTVSS	high polyreactivity

Sequence	polyreactivity (PSR sort gate)
QVQLEESGGGLVQAGGSLRLSSAASGYIFDWYAMGWYRQAPGKEREFVAAISGSDGSTYYADSVKGRFTISRDNAKNTVYLQMNSLKPVDTPVYYCAADPYYGDMEYWGQGTQVTVSS	low polyreactivity
QVHLVESGGGLVQAGGSLRLSCAASARIFRYYTMGWNRQAPGKERELVAAISVSGGSTYYADSVKGRFTSSRDNAKNTVYILMNSLKPEDTAVYYCAAPFVWSSYRGYDYWGQGSQVTVSS	high polyreactivity
QVQLVETGAGLVQAGGRLRLSCDSSGSTFYVYYMGWYRQSPGKERELVAAISSGAGSTYYADSVKGRFTISRDNAKNTVYLQMNSLTRKIPRSSTALLFTVNGGGSRSHDYWAQGTQVTVSS	low polyreactivity
QVQLVESGGGLVQAGGSLRLSCAASGSIFYRNAMGWYRPAPGKERELVAAISSDGSTNYADSVKGRFTISRDNAKNTVYLQMNSLKPEDTAVYYCAVDRYRYPFDYWGQGTQVTVSS	low polyreactivity
QVQLVESGGGLVQAGGSLRLSCAASGGTFRKYAMGWYRPAPGKERELVATISNGGSTYYADSVKGRFTISRDNAKNTVYLQMNSLIPEDTAVYYCAARFDYWVSGGLVKYNYWGQGTQVTVSS	high polyreactivity
QVQLVESGGGLVQAGGSLRLSCAASGSIFVWYAMGWYRQAPGKERELVARITSGGRTNYADSVKGRFTISRDNAKNTVYLQMNSLKPEDTAVYYCAAGRVSWSAYYYWGQGSQVTVSS	high polyreactivity
QVQLVESGGGLVQAGGSLRLSCAASGSTFGSYAMGWYRQAPGKERELVAAISRSGTSTYYADSVKGRFTISRDNAKNTVYLQMNSLKPEETAVYYCAAKFVTSGGLEGYWGQGTQVTVSS	high polyreactivity
QVQLVESGGGLVQAGGSLRLSCAASGRTFQFYAMGWYRQAPGKEREWVAAISRSSGSTTYADSVKGRFTISRDNAKNTVYLQMNSLKPEDTAVFYCDADARYRSYSLLVRPARYYYWGQGTQVTVAS	high polyreactivity
QVHLVESGGGLVQAGGSLRLSCAASGRTFRYYAMGWYRQAPGKERELVASISSTGGNTYYADSVKGRFTISRDNAKNTVYLQMNSLKPEDTAVYYCAAGAWTRGQYYYWGQGTQVTVSS	high polyreactivity
QVQLVESGGGLVQAGGSLRLSCAASGIIFEYYDRGWYRQAPGKERELVAAIDSGGSTYYADSVKGRFTISRDNAKNTVYLQMNSLKPEDTAVYYCAAETVRYDWGESPAALFDYWGQGTQVTVSS	low polyreactivity
QVQLVESGGGLVQAGGSLRLSCAASGGIFYFYAMGWYRQAPGKERELVAVITWSGGRTRYADSVKGRFTISRDNAKNTVYLQMNSLKPEDTAVYYCATYGVNPPGVEEYNYWGQGTQVTVSS	high polyreactivity
QVQLVESGGGLVQAGGSLRLSCAASGSTFLYYTMGWYRQAPGKERELVAAITSGGDSNYADSVKGRFTISRDNAKNTVYLQMNSLKPEDTAVYYCNAEYTWSGTKIYTYKYDYWGQGTQVTVSS	low polyreactivity
QVQLVESRGGLVQAGGSLRLSCAAYGFTFPNNAMGWNRQAPGKERELVAAITWSGRSTYADSVKGRFTISRDNAKNTVYLQMNSLKPEDTAVDYCYTRGTYLSKTLPSAYDYWGQGTQVIVSS	low polyreactivity
QVQLVESGGGLVQAGGSLRLSCAASGIIFYLYTMGWYRQAPGKERELVAAITRGGSTYYADSVKGRFTISRDNAKNTVYLQMNSLKPEDTSVYYCAAKHGPGYRRWYDYWGQGTQVTVSS	high polyreactivity
QDQLVESGGGLVQAGGSLRLSCAASGSIFNGNAMGWYRPAPGKERELVAAITRRGGRTFYADSVKGRFTISRDNAKNSVYLQMNSLKPEDTAVYYCNAYSKAVQGGYDYWGQGTQVTVSS	high polyreactivity
QVQLVESGGGLVQAGGSLRLSCAASGSTFWSYAMGWYRPAPGKERELVAAITSGGRTYYADSVKGRFTISRDNAKNTVYLQMNSLKPEDTAVYYCAAEGSVGLYGLIMHYWGQGTQVTVSS	high polyreactivity
QVQLVESGGGLVQAGGSLRLSCAASGRTFKYYAMGWYRQAPGKERELVAAISYNGGSTFYADSVKGRFTISRDNAKNTVYLQMNSLKPEDTAVYYCAAGSRYASELDYWGQGTQVTVSS	high polyreactivity
QVQLVESGGRLVQAGGSLRLSCAASGRIFGPYVMGWYRQAPGKERELFAAISTSGTYTYYADSVNGRFTISPDNAKNTVYLQMNSLKPEDTAVYYCAKRSGARHRLMDYWGQGTQVTVSS	low polyreactivity
QVQLVESGGGLVQAGGSLRLSCAASGRIFHYNAMGWYRQAPGKEREFVASISGSGGRTYYADSVKGRFTISRDNAKNTVYLQMNSLKPEDTAVYYCAASYYGHRYWGQGTQVTVSS	low polyreactivity
QVQLVESGGGLVQAGGSLRLSCAASGFTSGRNTMGWYRQAPGKERELVAAISSSGGRTYYADSVKGRFTISRDNAKKTVYLQKHRLKAEDPAVYYCNVAGAIKRTIGDYEYWGQGTQVTVSS	high polyreactivity
QVHLVESGGGLVQAGGSLRLSCAASGRTFRYYAMGWYRPAPGKERELVAAISSSGDRTYYADSVKGRFTISRDNAKNTVYLQMNSLKPEDTSVYYCAADRGARGDYYWGQGTQVTVSS	high polyreactivity
